Measurements: paper PMC5485859

How the values were obtained:
Settings in all cases: reference: WT HSP90α, after IR; sites T5,T7
[1] = molecular target: androgen receptor (AR) (UniProt P19091); test: co-immunoprecipitation
[2] = molecular target: endothelial nitric oxide synthase (eNOS) (UniProt P70313); test: co-immunoprecipitation
[3] = molecular target: glucocorticoid receptor (GR) (UniProt P06537); test: anti-GR IP, anti-Flag blot
[4] = molecular target: liver kinase B1 (LKB1) (UniProt Q9WTK7); test: anti-LKB1 IP, anti-Flag blot

binding against the reference [1]: stronger | binding against the reference [2]: stronger | binding against the reference [3]: stronger | binding against the reference [4]: stronger
Substance: HSP90α (from UniProt P07901) T5,7A HSP90α, after IR
